Substrate in this series: Nc1nc2nc[nH]c2c(=O)[nH]1
The series can be described thus: purified protein. The conditions noted are these: zinc active site.

A word on the Km: it is the concentration of substrate that gives half-maximal velocity.

B1: Guanine deaminase (GDA) (Homo sapiens) (protein)
chain: MCAAQMPPLAHIFRGTFVHSTWTCPMEVLRDHLLGVSDSGKIVFLEEASQQEKLAKEWCFKPCEIRELSHHEFFMPGLVDTHIHASQYSFAGSSIDLPLLEWLTKYTFPAEHRFQNIDFAEEVYTRVVRRTLKNGTTTACYFATIHTDSSLLLADITDKFGQRAFVGKVCMDLNDTFPEYKETTEESIKETERFVSEMLQKNYSRVKPIVTPRFSLSCSETLMGELGNIAKTRDLHIQSHISENRDEVEAVKNLYPSYKNYTSVYDKNNLLTNKTVMAHGCYLSAEELNVFHERGASIAHCPNSNLSLSSGFLNVLEVLKHEVKIGLGTDVAGGYSYSMLDAIRRAVMVSNILLINKVNEKSLTLKEVFRLATLGGSQALGLDGEIGNFEVGKEFDAILINPKASDSPIDLFYGDFFGDISEAVIQKFLYLGDDRNIEEVYVGGKQVVPFSSSV
In the case of B1, the Km turned out to be 12 ± 9 µM.
